Assay results published in article doi:10.1101/2020.09.30.318261.

Molecular target: SARS-CoV prefusion stabilised spike ectodomain trimer (SARS-CoV) (UniProt P59594)
Assay: cryo-EM structure

For “SARS-CoV prefusion stabilised spike ectodomain trimer (from UniProt P59594 14-1160) (domain or fragment)”, the stoichiometry N was 3.
